Measured values from PMC3393750, “Small Molecule Inhibitors of the LEDGF Site of Human Immunodeficiency Virus Integrase Identified by Fragment Screening and Structure Based Design” (PLoS ONE, 2012).

B1: Hexa-His tagged full length HIV IN (enzyme)
chain: FLDGIDKAQEEHEKYHSNWRAMASDFNLPPVVAKEIVASCDKCQLKGEAMHGQVDCSPGIWQLDCTHLEGKVILVAVHVASGYIEAEVIPAETGQETAYFLLKLAGRWPVKTVHTDNGSNFTSTTVKAACWWAGIKQEFGIPYNPQSQGVIESMNKELKKIIGQVRDQAEHLKTAVQMAVFIHNFKRKGGIGGYSAGERIVDIIATDIQTKELQKQITKIQNFRVYYRDSRDPVWKGPAKLLWKGEGAVVIQDNSDIKVVPRRKAKIIRDYGKQMAGDDCVASRQDED
notes: HIV-1 integrase, the cut product of the Gag-Pol polyprotein; also called His6-tagged IN; HIV integrase; source: E. coli BL21(DE3), purified (nickel HiTrap column)
B2: Untagged LEDGF (natural protein)
chain: not shown
notes: lens epithelium derived growth factor (LEDGF/p75), coded by the PSIP1 gene; source: E. coli, purified as described for FLAG-LEDGF

Experiments:
[1] = target: T1, FLAG epitope tagged LEDGF protein (UniProt O75475 1-530); experiment: AlphaScreen or HTRF; His6-tagged IN (30 nM) on Ni-chelate donor beads, Flag-tagged LEDGF (30 nM) on anti-FLAG acceptor beads; 25 mM Tris-Cl pH 7.5, 25 mM NaCl, 5 mM MnCl2, 5 mM MgCl2, 5 mM BME, 50 ug/ml BSA, 0.05% Tween-20; 1 hour at 30°C; competition with untagged LEDGF; conditions: both partners purified
T1 construct: lens epithelium derived growth factor (LEDGF/p75), coded by the PSIP1 gene; also called FLAG-LEDGF; Flag-tagged LEDGF; source: E. coli BL21(DE3), purified (heparin column, SP column); not shown: FLAG, N-terminal, kept

[2] = target: B1; experiment: as above; conditions: both partners purified

Binder	binding result [1]	percent reduction of the AlphaScreen signal at a 1:1 molar ratio with FLAG-LEDGF [2]
B1	binds	
B2		50%
